Some results are limits rather than exact numbers.

For the experiment, the target named is SIINFEKL:H-2K^b complex on the surface of A3.1A7 macrophage cells (chicken). Description: cell-based or functional assay.

On to “T cell receptor of the RF33.70 T-T hybridoma (CD8+, SIINFEKL-specific, H-2K^b-restricted) (TCR)”, for which the IL-2 production by the RF33.70 T cell hybridoma (sandwich ELISA), SIINFEKL peptide concentration giving a detectable response is below 0.1 pg/mL and the level of IL-2 production generated in response to free SIINFEKL peptide is below 275 pg/mL.

(Values after patent US20140363465A1.)
